The assay deals with trypsin. In words: other, trypsin inhibition.

Bridge positions count the residues as written; N and C are the ends. Ends that are not written are not given here.

B1: Seq01 (peptide)
chain: IPRCRKMPGVKMC
modifications: disulfide 4-13
B1 had a Ki of 22.5 nM.

B2: Seq07 (peptide)
chain: IPRCRKMPGVKMC
modifications: disulfide 4-13; not fully specified
B2 showed a Ki of 20 nM.

B3: Seq08 (peptide)
chain: IPRCRKMPGVKMC
modifications: disulfide 4-13; not fully specified
B3 displayed a Ki of 24.8 nM.

B4: Seq03 (peptide)
chain: VEQCTIIGDAKDC
modifications: disulfide 4-13
In turn, B4 displayed a Ki of 63.6 nM. Against the preceding molecule, the Ki is about 2.6-fold higher.

B5: Seq06 (peptide)
chain: IPRCRAMPGVKMC
modifications: disulfide 4-13
For B5, the Ki was determined as 24.2 nM. Compared with the last molecule, the Ki is about 2.6-fold lower.

B6: Seq02 (peptide)
chain: VEQCTIIGDEKDC
modifications: disulfide 4-13
The molecule B6 came in with an inhibition constant Ki of 24 nM.

B7: Seq09 (peptide)
chain: IPRCRKMPGVKMC
modifications: disulfide 4-13; not fully specified
B7 had an inhibition constant (Ki) of 21.8 nM.

B8: Seq04 (peptide)
chain: VQQCSEIAGAKPC
modifications: disulfide 4-13
B8 came in with an inhibition constant (Ki) of 42 nM. Compared with the last molecule, the Ki is about 1.9-fold higher.

B9: Seq05 (peptide)
chain: LHRCDKIADAKPC
modifications: disulfide 4-13
For the molecule B9, the Ki was 44 nM.

These data come from US20100144607 (published 2010).
